Target: Presenilin-1 (PS1) (human, UniProt P49768 1-467)
Assay: co-immunoprecipitation with anti-PS1/NTF R222 from transfected A431D cell extracts, Western blot with C36
Procedure: Immunoprecipitations (IPs), immunoblotting, immunofluorescence and confocal microscopy. For WB analysis of cell extracts, cells were washed with PBS and then solubilized in RIPA buffer. For IPs cells were solubilized in Hepes buffer (25 mM Hepes [pH 7.4], 150 mM NaCl, 1× Complete protease inhibitor cocktail, Roche) containing 1% digitonin (IPs with I-R222 and PI-R222 antibodies) or 1% Triton X-100 (IPs with β-catenin and desmoglein antibodies). Following centrifugation at 17,000×g for 10 min, supernatants (1 mg protein) were pre-cleared with protein A- or protein G-agarose (Pierce) for 2 hours. Supernatants were then incubated with antibodies overnight at 4° C. and treated for 2 hours with protein A-agarose (polyclonal antibodies) or with protein G-agarose (monoclonal antibodies). IPs were washed with Hepes buffer containing either 1% digitonin or 1% Triton X-100 and analyzed by SDS-PAGE. Immunofluorescence and confocal microscopy was performed as described by Georgakopoulos et al., (1999). Briefly, cells were plated on 22×22 mm collagen-coated glass coverslips, fixed in cold methanol for 10 min at −20° C. […]

binding result: no binding
B1: E-cadherin mutant GGG759-761AAA (receptor)
chain: DWVIPPISCPENEKGPFPKNLVQIKSNKDKEGKVFYSITGQGADTPPVGVFIIERETGWLKVTEPLDRERIATYTLFSHAVSSNGNAVEDPMEILITVTDQNDNKPEFTQEVFKGSVMEGALPGTSVMEVTATDADDDVNTYNAAIAYTILSQDPELPDKNMFTINRNTGVISVVTTGLDRESFPTYTLVVQAADLQGEGLSTTATAVITVTDTNDNPPIFNPTTYKGQVPENEANVVITTLKVTDADAPNTPAWEAVYTILNDDGGQFVVTTNPVNNDGILKTAKGLDFEAKQQYILHVAVTNVVPFEVSLTTSTATVTVDVLDVNEAPIFVPPEKRVEVSEDFGVGQEITSYTAQEPDTFMEQKITYRIWRDTANWLEINPDTGAISTRAELDREDFEHVKNSTYTALIIATDNGSPVATGTGTLLLILSDVNDNAPIPEPRTIFFCERNPKPQVINIIDADLPPNTSPFTAELTHGASANWTIQYNDPTQESIILKPKMALEVGDYKINLKLMDNQNKDQVTTLEVSVCDCEGAAGVCRKAQPVEAGLQIPAILGILGGILALLILILLLLLFLRRRAVVKEPLLPPEDDTRDNVYYYDEEAAAEEDQDFDLSQLHRGLDARPEVTRNDVAPTLMSVPRYLPRPANPDEIGNFIDENLKAADTDPTAPPYDSLLVFDYEGSGSEAASLSSLNSSESDKDQDYDYLNEWGNRFKKLADMYGGGEDD
notes: whole, on cells; Numbering on the unprocessed human E-cadherin precursor; Assayed in cell extracts by co-immunoprecipitation; also called mutant E-cadherin

From patent US20050245453A1 (MOUNT SINAI SCHOOL OF MEDICINE OF NEW YORK UNIVERSITY, published 2005)
